# Assay results: patent US20150105327
# Experiments:
# [1] = system: recombinant human histone H2A (wild type)
# [2] = system: tailless histone H2A (N- and C-terminal tails deleted)
# [3] = system: H2A with mutations of six other potential modification sites on the tail domains
# recombinant His-VprBP wild type, sequence (chain, as listed by the source): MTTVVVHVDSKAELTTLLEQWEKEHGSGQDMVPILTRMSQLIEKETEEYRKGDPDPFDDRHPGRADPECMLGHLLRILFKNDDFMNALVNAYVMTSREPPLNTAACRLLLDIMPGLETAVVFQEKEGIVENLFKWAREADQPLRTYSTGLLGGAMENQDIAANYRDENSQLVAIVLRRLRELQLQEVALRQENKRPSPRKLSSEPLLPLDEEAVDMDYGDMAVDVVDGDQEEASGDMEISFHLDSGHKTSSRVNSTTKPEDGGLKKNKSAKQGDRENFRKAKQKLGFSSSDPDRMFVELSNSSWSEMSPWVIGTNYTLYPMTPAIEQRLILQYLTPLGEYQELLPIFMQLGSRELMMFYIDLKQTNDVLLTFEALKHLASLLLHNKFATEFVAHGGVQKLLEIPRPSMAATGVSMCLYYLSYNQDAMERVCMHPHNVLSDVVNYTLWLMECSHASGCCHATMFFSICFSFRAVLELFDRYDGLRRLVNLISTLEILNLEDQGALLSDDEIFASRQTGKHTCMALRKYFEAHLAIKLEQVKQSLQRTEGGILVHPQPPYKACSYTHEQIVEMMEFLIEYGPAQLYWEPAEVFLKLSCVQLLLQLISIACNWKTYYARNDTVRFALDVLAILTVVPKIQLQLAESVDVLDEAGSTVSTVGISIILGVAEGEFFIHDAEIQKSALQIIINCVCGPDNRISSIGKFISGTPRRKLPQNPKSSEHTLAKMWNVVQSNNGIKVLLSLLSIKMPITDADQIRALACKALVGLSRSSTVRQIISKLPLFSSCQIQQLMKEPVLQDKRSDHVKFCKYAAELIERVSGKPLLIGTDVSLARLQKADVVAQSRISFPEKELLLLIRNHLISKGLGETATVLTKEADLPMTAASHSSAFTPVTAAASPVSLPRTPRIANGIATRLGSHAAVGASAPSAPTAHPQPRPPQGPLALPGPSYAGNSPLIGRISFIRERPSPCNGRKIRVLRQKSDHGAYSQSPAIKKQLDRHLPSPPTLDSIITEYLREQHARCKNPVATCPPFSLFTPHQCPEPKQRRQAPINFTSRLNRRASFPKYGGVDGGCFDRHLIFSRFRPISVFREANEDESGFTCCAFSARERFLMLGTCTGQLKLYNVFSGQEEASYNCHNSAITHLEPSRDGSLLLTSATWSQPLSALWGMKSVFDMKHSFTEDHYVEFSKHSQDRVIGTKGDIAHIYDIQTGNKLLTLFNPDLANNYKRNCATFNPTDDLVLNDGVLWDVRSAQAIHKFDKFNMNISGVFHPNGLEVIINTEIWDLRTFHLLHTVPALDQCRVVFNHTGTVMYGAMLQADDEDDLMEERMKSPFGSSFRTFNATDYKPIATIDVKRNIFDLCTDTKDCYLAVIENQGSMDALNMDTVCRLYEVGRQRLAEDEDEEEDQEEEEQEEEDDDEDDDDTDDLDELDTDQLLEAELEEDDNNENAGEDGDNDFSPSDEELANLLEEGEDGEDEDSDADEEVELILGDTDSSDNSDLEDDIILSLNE
# VprBP kinase-dead mutant K194R, sequence (chain, as listed by the source K194R): as the sequence (chain, as listed by the source) above, with K194R counted along it
Substance,"H2A phosphorylation in nucleosomes, in vitro kinase assay, autoradiography [1]","H2A phosphorylation in nucleosomes, in vitro kinase assay, autoradiography [2]","phosphorylation of H2A in reconstituted nucleosomes, in vitro kinase assay, autoradiography [1]","phosphorylation of free individual histones, in vitro kinase assay with [g-32P]-ATP, autoradiography [1]","H2A phosphorylation in nucleosomes, in vitro kinase assay, autoradiography [3]","H2A phosphorylation in nucleosomes, in vitro kinase assay, autoradiography (histone H2A T120A mutant)","phosphorylation of free individual histones, in vitro kinase assay with [g-32P]-ATP, autoradiography (recombinant histone H3)","phosphorylation of free individual histones, in vitro kinase assay with [g-32P]-ATP, autoradiography (recombinant histone H2B)","phosphorylation of free individual histones, in vitro kinase assay with [g-32P]-ATP, autoradiography (recombinant histone H4)"
VprBP kinase-dead mutant K194R,mutation of this lysine residue completely abrogated kinase activity,,,,,,,,
recombinant His-VprBP wild type,,simultaneous deletion of the N- and C-terminal tails of H2A blocks H2A phosphorylation by VprBP,VprBP generated clear labeling of H2A in the nucleosome after autoradiography,"Autoradiograph of the kinase reaction products showed a robust phosphorylation of H2A, but not other core histones",mutations of six other potential modification sites on the tail domains had little effect,VprBP-mediated phosphorylation is completely abolished by mutation of T120,"a robust phosphorylation of H2A, but not other core histones","a robust phosphorylation of H2A, but not other core histones","a robust phosphorylation of H2A, but not other core histones"
